# Measured values reported in IntAct's records for PubMed 31515488.
# B1: Peroxisomal bifunctional enzyme (Homo sapiens), Q08426 (parent)
# chain: MAEYTRLHNALALIRLRNPPVNAISTTLLRDIKEGLQKAVIDHTIKAIVICGAEGKFSAGADIRGFSAPRTFGLTLGHVVDEIQRNEKPVVAAIQGMAFGGGLELALGCHYRIAHAEAQVGLPEVTLGLLPGARGTQLLPRLTGVPAALDLITSGRRILADEALKLGILDKVVNSDPVEEAIRFAQRVSDQPLESRRLCNKPIQSLPNMDSIFSEALLKMRRQHPGCLAQEACVRAVQAAVQYPYEVGIKKEEELFLYLLQSGQARALQYAFFAERKANKWSTPSGASWKTASARPVSSVGVVGLGTMGRGIVISFARARIPVIAVDSDKNQLATANKMITSVLEKEASKMQQSGHPWSGPKPRLTSSVKELGGVDLVIEAVFEEMSLKKQVFAELSAVCKPEAFLCTNTSALDVDEIASSTDRPHLVIGTHFFSPAHVMKLLEVIPSQYSSPTTIATVMNLSKKIKKIGVVVGNCFGFVGNRMLNPYYNQAYFLLEEGSKPEEVDQVLEEFGFKMGPFRVSDLAGLDVGWKSRKGQGLTGPTLLPGTPARKRGNRRYCPIPDVLCELGRFGQKTGKGWYQYDKPLGRIHKPDPWLSKFLSRYRKTHHIEPRTISQDEILERCLYSLINEAFRILGEGIAASPEHIDVVYLHGYGWPRHKGGPMFYASTVGLPTVLEKLQKYYRQNPDIPQLEPSDYLKKLASQGNPPLKEWQSLAGSPSSKL
# partner: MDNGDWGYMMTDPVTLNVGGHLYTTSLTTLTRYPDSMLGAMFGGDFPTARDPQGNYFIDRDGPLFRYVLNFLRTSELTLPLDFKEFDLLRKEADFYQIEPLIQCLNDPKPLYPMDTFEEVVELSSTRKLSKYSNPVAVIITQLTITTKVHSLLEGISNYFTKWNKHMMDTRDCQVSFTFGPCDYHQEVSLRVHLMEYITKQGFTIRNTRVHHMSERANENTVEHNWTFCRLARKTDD
# B2: Inositol monophosphatase 1 (Homo sapiens), P29218-1 (parent)
# chain: MADPWQECMDYAVTLARQAGEVVCEAIKNEMNVMLKSSPVDLVTATDQKVEKMLISSIKEKYPSHSFIGEESVAAGEKSILTDNPTWIIDPIDGTTNFVHRFPFVAVSIGFAVNKKIEFGVVYSCVEGKMYTARKGKGAFCNGQKLQVSQQEDITKSLLVTELGSSRTPETVRMVLSNMEKLFCIPVHGIRSVGTAAVNMCLVATGGADAYYEMGIHCWDVAGAGIIVTEAGGVLMDVTGGPFDLMSRRVIAANNRILAERIAKEIQVIPLQRDDED
# partner: B2 chain
# B3: Katanin p60 ATPase-containing subunit A-like 1 (Homo sapiens), Q9BW62 (parent)
# chain: MNLAEICDNAKKGREYALLGNYDSSMVYYQGVMQQIQRHCQSVRDPAIKGKWQQVRQELLEEYEQVKSIVSTLESFKIDKPPDFPVSCQDEPFRDPAVWPPPVPAEHRAPPQIRRPNREVRPLRKEMAGVGARGPVGRAHPISKSEKPSTSRDKDYRARGRDDKGRKNMQDGASDGEMPKFDGAGYDKDLVEALERDIVSRNPSIHWDDIADLEEAKKLLREAVVLPMWMPDFFKGIRRPWKGVLMVGPPGTGKTMLAKAVATECGTTFFNVSSSTLTSKYRGESEKLVRLLFEMARFYAPTTIFIDEIDSICSRRGTSDEHEASRRVKSELLIQMDGVGGALENDDPSKMVMVLAATNFPWDIDEALRRRLEKRIYIPLPTAKGRAELLKINLREVELDPDIQLEDIAEKIEGYSGADITNVCRDASLMAMRRRINGLSPEEIRALSKEELQMPVTKGDFELALKKIAKSVSAADLEKYEKWMVEFGSA
# partner: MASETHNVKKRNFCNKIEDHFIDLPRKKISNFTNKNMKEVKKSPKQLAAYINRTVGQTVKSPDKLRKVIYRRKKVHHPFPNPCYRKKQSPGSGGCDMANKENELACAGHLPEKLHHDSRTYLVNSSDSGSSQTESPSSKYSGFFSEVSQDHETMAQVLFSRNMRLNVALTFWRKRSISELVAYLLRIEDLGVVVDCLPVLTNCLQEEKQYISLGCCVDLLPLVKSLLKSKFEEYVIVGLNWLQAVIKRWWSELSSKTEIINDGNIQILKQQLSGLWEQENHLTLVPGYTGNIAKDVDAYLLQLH
# B4: Casein kinase II subunit alpha' (Homo sapiens), P19784 (parent)
# chain: MPGPAAGSRARVYAEVNSLRSREYWDYEAHVPSWGNQDDYQLVRKLGRGKYSEVFEAINITNNERVVVKILKPVKKKKIKREVKILENLRGGTNIIKLIDTVKDPVSKTPALVFEYINNTDFKQLYQILTDFDIRFYMYELLKALDYCHSKGIMHRDVKPHNVMIDHQQKKLRLIDWGLAEFYHPAQEYNVRVASRYFKGPELLVDYQMYDYSLDMWSLGCMLASMIFRREPFFHGQDNYDQLVRIAKVLGTEELYGYLKKYHIDLDPHFNDILGQHSRKRWENFIHSENRHLVSPEALDLLDKLLRYDHQQRLTAKEAMEHPYFYPVVKEQSQPCADNAVLSSGLTAAR
# B5: Regulator of G-protein signaling 20 (Homo sapiens), O76081 (parent)
# chain: MPQLSQDNQECLQKHFSRPSIWTQFLPLFRAQRYNTDIHQITENEGDLRAVPDIKSFPPAQLPDSPAAPKLFGLLSSPLSSLARFFSHLLRRPPPEAPRRRLDFSPLLPALPAARLSRGHEELPGRLSLLLGAALALPGRPSGGRPLRPPHPVAKPREEDATAGQSSPMPQMGSERMEMRKRQMPAAQDTPGAAPGQPGAGSRGSNACCFCWCCCCSCSCLTVRNQEDQRPTIASHELRADLPTWEESPAPTLEEVNAWAQSFDKLMVTPAGRNAFREFLRTEFSEENMLFWMACEELKKEANKNIIEEKARIIYEDYISILSPKEVSLDSRVREVINRNMVEPSQHIFDDAQLQIYTLMHRDSYPRFMNSAVYKDLLQSLSEKSIEA
# B6: Protein LDOC1 (Homo sapiens), O95751 (parent)
# chain: MVDELVLLLHALLMRHRALSIENSQLMEQLRLLVCERASLLRQVRPPSCPVPFPETFNGESSRLPEFIVQTASYMLVNENRFCNDAMKVAFLISLLTGEAEEWVVPYIEMDSPILGDYRAFLDEMKQCFGWDDDEDDDDEEEEDDY
# partner: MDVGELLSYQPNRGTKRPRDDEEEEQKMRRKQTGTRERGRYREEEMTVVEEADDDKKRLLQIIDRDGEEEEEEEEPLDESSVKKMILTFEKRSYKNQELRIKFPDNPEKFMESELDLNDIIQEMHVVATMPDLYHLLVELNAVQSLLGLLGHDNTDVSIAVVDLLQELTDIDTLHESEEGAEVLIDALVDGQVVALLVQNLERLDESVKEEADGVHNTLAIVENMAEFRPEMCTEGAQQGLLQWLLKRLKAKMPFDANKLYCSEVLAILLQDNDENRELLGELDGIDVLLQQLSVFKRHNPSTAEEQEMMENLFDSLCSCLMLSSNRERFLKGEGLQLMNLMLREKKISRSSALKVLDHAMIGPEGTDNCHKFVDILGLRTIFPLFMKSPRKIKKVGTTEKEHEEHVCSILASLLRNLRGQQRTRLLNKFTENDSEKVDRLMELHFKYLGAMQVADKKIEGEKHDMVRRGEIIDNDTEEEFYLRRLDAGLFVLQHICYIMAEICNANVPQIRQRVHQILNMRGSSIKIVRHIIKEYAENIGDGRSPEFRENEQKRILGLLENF
# Variants of: B1
# Conditions: with kctd6_human KCTD6, Q8NC69
row,Variant,effect of a mutation on the interaction
1,I646T,disrupting interaction strength
2,S703F,with no effect

# Variants of: B2
# Conditions: with impa1_human IMPA1, P29218
row,Variant,effect of a mutation on the interaction
1,G164S,with no effect

# Variants of: B3
# Conditions: with ktbl1_human KATNBL1, Q9H079
row,Variant,effect of a mutation on the interaction
1,A300S,with no effect
2,C424S,with no effect
3,V272I,with no effect
4,I142M,with no effect

# Variants of: B4
# Conditions: with tri41_human TRIM41, Q8WV44
row,Variant,effect of a mutation on the interaction
1,N63T,with no effect

# Variants of: B5
# Conditions: with otx1_human OTX1, P32242
# Sequence of otx1_human OTX1, P32242 (P32242 whole entry): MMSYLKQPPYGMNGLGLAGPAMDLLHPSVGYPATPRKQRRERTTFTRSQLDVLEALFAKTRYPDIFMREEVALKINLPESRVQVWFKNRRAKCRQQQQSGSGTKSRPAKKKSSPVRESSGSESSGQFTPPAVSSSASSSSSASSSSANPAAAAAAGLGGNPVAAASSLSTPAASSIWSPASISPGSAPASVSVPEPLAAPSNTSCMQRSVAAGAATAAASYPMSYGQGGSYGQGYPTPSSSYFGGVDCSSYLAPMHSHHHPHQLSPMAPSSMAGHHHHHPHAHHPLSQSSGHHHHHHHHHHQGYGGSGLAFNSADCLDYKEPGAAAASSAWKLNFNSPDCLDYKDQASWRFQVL
row,Variant,effect of a mutation on the interaction
1,H347Y,with no effect

# Variants of: B5
# Conditions: with co8a1_human COL8A1, P27658
# Sequence of co8a1_human COL8A1, P27658 (P27658 whole entry): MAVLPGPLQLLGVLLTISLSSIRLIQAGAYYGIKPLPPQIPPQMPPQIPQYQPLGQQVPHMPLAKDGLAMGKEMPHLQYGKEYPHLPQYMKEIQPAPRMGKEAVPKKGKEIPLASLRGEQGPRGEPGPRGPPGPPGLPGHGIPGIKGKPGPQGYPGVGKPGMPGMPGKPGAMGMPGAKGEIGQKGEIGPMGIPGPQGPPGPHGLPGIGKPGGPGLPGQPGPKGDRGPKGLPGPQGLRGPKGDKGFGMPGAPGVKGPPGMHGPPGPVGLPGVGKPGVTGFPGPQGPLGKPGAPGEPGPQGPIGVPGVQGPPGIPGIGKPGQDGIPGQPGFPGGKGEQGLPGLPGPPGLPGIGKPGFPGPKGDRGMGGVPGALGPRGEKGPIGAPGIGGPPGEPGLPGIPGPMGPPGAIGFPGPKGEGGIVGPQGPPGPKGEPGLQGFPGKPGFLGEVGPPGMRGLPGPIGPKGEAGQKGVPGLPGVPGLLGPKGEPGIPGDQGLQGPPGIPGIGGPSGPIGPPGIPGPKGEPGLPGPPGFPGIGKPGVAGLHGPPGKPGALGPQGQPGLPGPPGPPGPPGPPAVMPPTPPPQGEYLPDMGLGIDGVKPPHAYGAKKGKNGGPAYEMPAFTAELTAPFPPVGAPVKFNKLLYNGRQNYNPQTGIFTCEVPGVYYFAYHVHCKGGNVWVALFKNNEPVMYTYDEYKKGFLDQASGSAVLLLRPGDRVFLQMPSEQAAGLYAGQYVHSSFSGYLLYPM
row,Variant,effect of a mutation on the interaction
1,H347Y,with no effect

# Variants of: B5
# Conditions: with hxa1_human HOXA1, P49639
# Sequence of hxa1_human HOXA1, P49639 (P49639 whole entry): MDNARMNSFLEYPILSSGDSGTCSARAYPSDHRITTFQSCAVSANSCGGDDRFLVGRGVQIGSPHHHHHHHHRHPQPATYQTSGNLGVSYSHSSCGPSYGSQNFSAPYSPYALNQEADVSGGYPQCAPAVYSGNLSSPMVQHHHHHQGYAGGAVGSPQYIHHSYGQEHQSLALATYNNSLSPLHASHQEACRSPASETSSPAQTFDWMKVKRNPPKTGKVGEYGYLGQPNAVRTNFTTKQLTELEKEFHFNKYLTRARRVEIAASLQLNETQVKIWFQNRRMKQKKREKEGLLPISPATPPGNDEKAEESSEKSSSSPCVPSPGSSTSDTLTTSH
row,Variant,effect of a mutation on the interaction
1,H347Y,with no effect

# Variants of: B6
# Conditions: with ctbl1_human CTNNBL1, Q8WYA6
row,Variant,effect of a mutation on the interaction
1,L12H,disrupting interaction strength
